{"source": "paper PMC10371975", "about": "“Potential of Y. lipolytica epoxide hydrolase for efficient production of enantiopure (R)-1,2-octanediol” (AMB Express, 2023)", "proteins": {"B1": {"name": "Yleh (Yarrowia lipolytica CLIB122) (protein)", "chain": "MTDSLSLGYYQLFHKYAVLGDKRWHYLDIPPTSPSPALLGSGKTLMLCHGFPDSWYGWRKQIPILRNLGYRLLVPSQMGYTRSEAPLYPTPEPNEKGEYPELGLEDGTDALKDLYCYTGKFYAQCMDELLTQLGIPTVTIIGHDYGAYLGPKLYLYFPHRVEAIATSCWHYVPALKKFFAIPDFIKLAPSLSYQAYLIGDASKDFATREGSEPFLRQVFGGEGWGGSDSSVHMTEPEFQNYMTEFATGGRFLSYMVSTYKARRLTFEIEKQDFLDKGRTPESMQVDVPYLHVGAEQDMAFRPPMIKNLRKYVKPGRLDEVWIDASHWLMFEKADEFNHELVKWLDKIHGSQSKL", "notes": "recombinant full-length 354-residue protein (ORF 1065 bp), pET28a+ vector, E. coli BL21AI host, Ni-NTA plus size exclusion purification (His tag implied); distinct from bifunctional Ylehd of the same yeast"}}, "substrate": "CCCCCCC1CO1", "test": "purified protein", "format": "biochemical, Yarrowia lipolytica", "conditions": "50 mM Tris-sulphate pH 8.0, 30 °C, 0.1-0.7 mM EO, 1 µg enzyme", "data": [{"protein": "B1", "values": [{"measurement": "Km", "value": "430 ± 17", "unit": "µM"}, {"measurement": "kcat", "value": "3.3458 ± 0.2163", "unit": "s⁻¹"}]}]}
